Experimental findings from the nanobody polyreactivity screen of Harvey et al. (2022) are described below.

The nature of this data set: yeast display, Sf9 membrane polyspecificity reagent, FACS + sequencing; frameworks hold sequencing errors. In outline: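 Nanobodies from a synthetic yeast display library (Saccharomyces cerevisiae BJ5465), induced 36–48 hours with galactose, were stained 1 hour at 4 °C with 10% biotinylated, detergent-solubilized Sf9 membrane reagent, enriched on streptavidin microbeads, then FACS-sorted. Anti-HA (expression) and streptavidin (reagent binding) fluorescence set low and high (top ~1%) gates. Polyreactivity labels come from the gate of origin. Genes were colony-PCR amplified, MiSeq 2 × 250 sequenced and filtered by CDR length.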
“QVQLQESGGGLVQAGGSLRLSCAQSGTICGWDRMGRYRQAPGKERELVATIDNRGSTNYADSVKGRFTISRDNANNTVYPQKISLKPDDTAVDYCAVVGPTPQYHLYWGQGTQVTVCS”: the “polyreactivity (PSR sort gate)” value is “high polyreactivity”. The result for “QVQLQESGGGLVQAGGSLRLSCSASGYISHADEMGWYRQAPGKEHELVASISNGGSTNYADSVKGRFTISRDNAKNTVYLQMNSLKSEDTAVYYCAAWTGQVDIHYYWGQGTQVTVSS” reads “low polyreactivity”. As to “QVQLQESGGGLVQAGGSLRLTCAASGSIYDDTYMGCYRQAPGKERELVATIDSGSTTNYADSVKGRITIRRDNAKNTVYLQMNSLKPEDTAVYFCGAADSHIDYFDYWGQGTQVTVSS”, the “polyreactivity (PSR sort gate)” value is “low polyreactivity”. In the case of “QVQLQESGGGLVQAGGSLRPRCAAGGTIFVSVNMGWYRHAPGEEREFVASITQGATTNYADSLIGRFTISRDNAKNTVYLQMNCQNQEDTAVYYCAVHESGGITFTYWGQGTQVTVSS” it was “high polyreactivity”. The result for “QVQLQESGGGLVQAGGSLRPSCAASGNIFVPFKMGWYRLAPGKERELVASINRGSTTNYADSVKGRFTISRDNAKNTVYLQMISLKPEDTAVYYCAAIAYPDIPTYLDYDSDYFYWDQGTQVTVSS” reads “high polyreactivity”; that for “QVQLQESGGGLVQAGGSLRPSCAASGSISDGVPMGWYRQAPGEQRELVATTVLGATTNYADSVKGRFTISRGNAKNTVYLLMNSLKPEETAVYYCAARLRYDKGFSYWGQGTQVTVSS”, “low polyreactivity”; that for “QVQLQESGGGLVQAGGSLRQSCTASGTIYYTSAMGWYRHAPGKDREFVAAIASGSSTNYADSVKGRFTISRDNAKNTVYLKMNSLKPEVTAVYYCAASERVRNIYQYWGQGTQVSVSS”, “high polyreactivity”.

Consider “QVQLQESGGGLVQAGGSLRQSYAASGYIFPSLAKGWYRQAPGKEREFVAAIGRGSTNNYADSVKGRFTISRDNAKKTAYQQMNSLKPEDTAVYYCAAAASPLTRHLYWGQGTQVTVSS”, for which the “polyreactivity (PSR sort gate)” value is reported as “low polyreactivity”. In the case of “QVQLQESGGGLVQAGGSLRRSCAASGSIFYHWAMGWYRQTPGKERELVASITSGGNTNYADSVKGRFTISRDNAKNTVYLPMDRLKPEDTAVYYCAADGYYGAWDLEYYYWGQGTQVTVSS” it was “low polyreactivity”; in that of “QVQLQESGGGLVQAGGSMRLSCAASGSISELRPMGWYRKAPGKERELVAGISTGGSTNYADSVKGRFTISRDNAKNTVYLQMNSQKPEDTAVYYCAAASYGEGTYDYWGQGTQVTVRS”, “high polyreactivity”; in that of “QVQLQESGGGLVQAGGSMRLSCAASGSISELRPMGWYRQAPGKERELVAGISTGGSTNYADSVKGRFTISRDNAKNTVYLQMNSLKPEDTAVYYCAAASYGEGTYDYWGQGTQVTVRS”, “high polyreactivity”. In the case of “QVQLQESGGGLVQAGGSMRLSCAASGSISELSPMGWYRQAPGKERELVAGISTGGSTNYADSVKGRFTISRDNAKNTVYLQMNSLKPEDTAVYYCAAASYGEGSYDYWGQGTQVTVRS” it was “high polyreactivity”. The result for “QVQLQESGGGLVQAGGSMRLSCAASGYFSNYYSLGLYRQAPGKERELVAGIGTGTSTYYADSVKGRFTISRDNAKNTVYQQMNSLKPEDTAVYYCAAPLDTSSRIFDYWGQGTQVTVSS” reads “low polyreactivity”.

As to “QVQLQESGGGLVQAGGTLRLSCAASGSFSADEDMGWYRQEQGKEREFVAGISVGGNTNYADSVKGRFTISRENAKNTVYLQINSLKPEDTAVYYCAVLQDVYDALDYWAQGTQVTVSS”, the “polyreactivity (PSR sort gate)” value is “high polyreactivity”. In the case of “QVQLQESGGGLVQAGRSLRLSCEASGSISILQSMGWYRQAPGKEGELVAGINWGATTYYADSVKVRLTTSRDYAKNTVYLEMNSLKPEETAVYYCAVPTYYTYPLLYWGPGTQVTVSS” it was “low polyreactivity”; in that of “QVQLQESGGGLVQAGVSLRLSCAASGNINDADIMGCYRQAPGKERELVTSITDGGSTNYADSVKGRFTISRDNAKNTVYLQMNSLKPEDTAVYYCAAIAYPVIPTSFDYNSDYSYWGQGTQVTVSS”, “low polyreactivity”; in that of “QVQLQESGGGLVQARGSLRLSCSASGNISVNGFMGWYRQAPGNVRELVASIGIGGTTYYADSVKGRFSISRDNAKNTVYLQMNSLKPEDTSVYYCAASYLYYAYSYWYQGTQVTVSS”, “low polyreactivity”.

Take “QVQLQESGGGLVQEGGSLRLRCAASRNISGSSDLGWYHQAPGKEREFVASITSGGTTYYADSVKGRFTISRDNAKNTVYLQMNSLKPEDTAVYYCAVGDPADAEFGYWGQGTQVTVSS”: the “polyreactivity (PSR sort gate)” value is reported as “low polyreactivity”. The result for “QVQLQESGGGLVQEGGSLRLTCAASGNISPPADMGWYRQAPGKERELVASIGTGGTTNYADSVKGRFTISRDNAKNTVYLQMNSLKPDDTAVYYCAAVRYEYNPYDYWGQGTQVSVSS” reads “low polyreactivity”. For “QVQLQESGGGLVQGGGSLRLSCAASGSNYRSWYMGWYRQAPGKERELVASITEGATTNYAYSVKAALPLAAITRNSVYRQMDSMKPEDTAVYYRGASFGSTYDLVYWGQGTQVTVSS”, the “polyreactivity (PSR sort gate)” value was “high polyreactivity”. With “QVQLQESGGGLVQVGGSQRLSCAASGNIFYNYAMGWYRHAHGKEREFDATINHGTSINYADSVKGRFTISRDNAKNTVYLQMNSLKPEDTAVYYCAADLSWTDNLFYWGQGTQVTVSS”, the “polyreactivity (PSR sort gate)” value is “low polyreactivity”.

Turning to “QVQLQESGGGLVQVGGSQRLSCAASGNNFYNYAMGWYRHAQGKEREFDATINHGTSINYADSVKGRFTISRDNAKNTVYLQMNSLKPEDTAVYYCAADLSWTDNLFYWGQGTQVTVSS”, the “polyreactivity (PSR sort gate)” value is recorded as “low polyreactivity”. The result for “QVQLQESGGGLVQVGGSQSLICAASGNIFYNYAMGWYRHAQGKEREFDATINHGTSINYADSVKGRFTISRDNAKNTVYLQMNSLKPEDTAVYYCAADLSRTDNLFYWGQGTQVTVSS” reads “low polyreactivity”; that for “QVQLQESGGGMVQAGGSLRLSCAASGSIFVSVTMGWYRQAPGKERELVASIGRGSTTNHADSVKGLFTISRDNAKNIVYLLMNSLKPEDTAVYYCAALESYAKYHGYWGQGTQVTVSS”, “low polyreactivity”.

As to “QVQLQESGGGQVQAGGSLRLSCAASGSIYDDTYMGWYRQAPGKERELVATIDSGSTTNYADSVIGRITISRDNAKNTVYLQMNSLKPEDTAVYYCAAADSHIDYFDYWGQGTQVTVSS”, the “polyreactivity (PSR sort gate)” value is reported as “low polyreactivity”. In the case of “QVQLQESGGGQVQAGGSLRLSCAASGTISPLPAMGWYRQAPGKEREFVAGIDTGAITNYADSVKGRFTISRDNAKNTVYLQMISLKPEDTAVYYCAVFPAAYDYYERYYTYWGQGTQVYVSS” it was “low polyreactivity”; in that of “QVQLQESGGGQVQAGGSLRLSCAASGYISTHYFMGWYRQAPGKDREFVAGISNGSITNYADSVKGRFTISRDNARNTVYLQMNSLKPEDTEVYYGAAYEWTYVRFGYWGQGTQVTVSG”, “high polyreactivity”. The result for “QVQLQESGGGQVQAGGSLRQSCAASGSIFQATYMGWDRQAPSKEREFVASITYGSITNYADSVKGRFTIGRDNAKDTWYLQMNSLKPEDAAVYYCAVDRHYIPAFHYWGQGTQVNVSS” reads “low polyreactivity”. The result for “QVQLQESGGGVQAGGSLRLSCAASGSISAPILMGWYRQAPGKERELVAGIGGGANTYYADSVKGRFTVSRDNAKYTVYLQMNSLKPEDTAVYYCAAGDYYWTNFGYWGQGTQVTASS” reads “high polyreactivity”.

Consider “QVQLQESGGGVQAGGSLRLSCAASGSISAPILMVWYRQAPGKERELVAGIGGGANTYYADSVKGRFTVSRDNAKYTVYLQMNSLKPEDTAVYYCAAGDYYWTNFGYWGQGTQVTASS”, for which the “polyreactivity (PSR sort gate)” value was “high polyreactivity”.
